Experimental data published in the supplement of paper PMC9170038.

Test system: MS2 coat protein
Test: apparent KD of MS2 coat protein; higher = weaker reporter binding
Settings: Eterna round: R107
Method in brief: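 Binding of SNAP-549-labelled MS2 coat protein was measured on designed RNA switches transcribed on-chip from Illumina sequencing clusters. The protein rose in twofold steps from 0.7 or 1.5 nM to 3 µM, with 0.8–1.5 h per step early on and 10–20 min per step later, in 100 mM Tris-HCl pH 7.5, 80 mM KCl, 4 mM MgCl2, without or with constant ligand. Each design's apparent KD is the median of fits to its normalised cluster binding curves.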

[1] = input ligand: theophylline 20 uM
[2] = input ligand: tryptophan 2.4 mM
[3] = input ligand: theophylline 2 mM

Sequence | apparent KD of MS2 coat protein (input ligand: arginine 13.2 mM) | apparent KD of MS2 coat protein [1] | apparent KD of MS2 coat protein [2] | apparent KD of MS2 coat protein (input ligand: none) | apparent KD of MS2 coat protein [3]
GAAGCUCGCGAUGAUACCAGCUCGACUGAUAACAUGAGGAUCACCCAUGUUGUGCGCCCUAGCCCUUGGCAGCAUGACAUAUUCG [theeternabot_sameState_MS2_Theo_B_46] | 47.5 nM | 126 nM | 97.8 nM |  | 
GAGCGCGUGGACUGGCGUGCUCCGCUCCGUCGAGGACCGGUACGGCCGCCACUCGACAUGAGGAUCACCCAUGUGCGCGCUCGCU [#1 Exclusion - Tryptophan A Attempt #23 (HarryS)] | 7.37 nM | 177 nM | 19.8 nM | 27 nM | 27.8 nM
GAGUAGAGGACGGCCGCCACUAAACAUGAGGAUCACCCAUGUCGUGAUCCGUUACCUAGGGUAGAUAGGACCGGGUCAUGUAGUC [Exclusion Tryptophan B GF 17] | 47.7 nM | 65.8 nM |  |  | 84.7 nM
GAUAUAUACUCGGCCGCCACUGAGAGAGUCAUGUAAACAUGAGGAUCACCCAUGUAAUAUAUAUACAGGACCGGGAGUAUAUUAA [4.C] | 16 nM | 16.1 nM |  |  | 14 nM
GAUCCUCAUACGGAUACCAGCGAAUAACAUGAGGAUCACCCAUGUAAUAAAGAAAAUAAAUGCCCUUGGCAGCCGAAUAGAUAGU [Same State Theophylline B GF 1] | 36.2 nM | 137 nM | 91.1 nM |  | 
GAUGAACUAUAUGAUACCAGACAACAUGAGGAUCACCCAUGUGAAAGUCGUCCUCUGCCUGUCCCUUGGCAGCGUAUAGUUUAUC [XTheo B #14] | 61.1 nM | 76.1 nM | 28.4 nM |  | 
GAUGAACUAUAUGAUACCAGACAACAUGAGGAUCACCCAUGUGAUUGUCGUCCUCUGCCUGUCCCUUGGCAGCGUAUAGUUUAUC [XTheo B #16] | 38.4 nM | 87.4 nM | 23.4 nM |  | 
GAUGAACUAUUCGAUACCAGACCACAUGAGGAUCACCCAUGUGUGUUUCGUCCUUAGCCGGUCCCUUGGCAGCGAAUAGUUUAUC [#28 Exclusion-TheophyllineB] | 25.8 nM | 30.3 nM | 19.4 nM |  | 
GAUUUUACAAAAGUAAAAUCAGUGGGUGAACGAGGACCGGUACGGCCGCCACUCGGACAUGAGGAUCACCCAUGUCCAUGUGAAA [AstrosExyTryA#21] | 17.1 nM | 18.4 nM | 61.9 nM | 15.7 nM | 20.6 nM
GCACAAGAUGGAAGGAGCGCUGGAAAAGGUCACAUGAGGAUCACCCAUGUUCUCCGAACCGAGCAGGUAGGUCGCUAUCUUGUGC [#09 Same State - Arginine B] | 37.5 nM | 59.9 nM | 41.7 nM | 41.9 nM | 50.7 nM
GCACCAGGUACGGAUACCAGCUGCCAUAGUUACAUGAGGAUCACCCAUGUGAUCUAUUGUAGCCCUUGGCAGCUGUACCUGGUGC [SSThB NP+V+V2 #5 Same Structure] | 71.2 nM | 398 nM | 46.8 nM |  | 
GCACGACAUGAGGAUCACCCAUGUGCAGAUACCAGUAAUGUAUGUUACCCUUGGCAGCUGAGUAGGUCUGGAGGGCUAUAGGUAA [Same State Theophylline A GF12] | 10.6 nM | 18 nM | 13.7 nM |  | 
GCACGGGCGAUCGGCACUUUUACUAAUAUACGAGGACCGGUACGGCCGCCACUCGAGCUAAGACAUGAGGAUCACCCAUGUAACG [theeternabot_exclusion_MS2_Trp_A_41] | 22 nM | 30 nM |  |  | 30.4 nM
GCCGCGGCCGCGAUACACAUGGGUGUGUAACGAGGACCGGUACGGCCGCCACUCGAGAUGGCACAUGAGGAUCACCCAUGUGUGC [Exclusion Tryp A GF16] | 17.1 nM | 60.2 nM | 29.9 nM | 24.1 nM | 44.5 nM
GCGAUGGAGCGAAGGAGCGUGCUAGUACAUGAGGAUCACCCAUGUGAGUCGCAGCGCUAAGCACAGGUAGGUCGCGCUCCAUCGC [EAB NP+V+V2 #12] | 31.1 nM | 26.8 nM | 40.5 nM | 48.4 nM | 49.7 nM
GCGGACAUGAGGAUCACCCAUGUAAAUCCUCGAGGACCGGUACGGCCGCCACUCGAACGAGUGGCGCGCGAGCGCGCGCUCGCGC [aBa] | 39.4 nM | 60.3 nM | 45.7 nM | 30.2 nM | 36.4 nM
GCGUGGUCUGCGGCCGCCACUCAAGGAGCUACAUAGCUCCUAGACAUGAGGAUCACCCAUGUCGCGAGGACCGGGUAGAUUCUCC [Same State Typptophan B GF10] | 40.2 nM | 134 nM |  |  | 120 nM
GCUAGGUCUACGGCCGCCACUAGACGUGGGUAAGACAUGAGGAUCACCCAUGUACUACAGGCGCAUAGGACCGGGUAGACCUAGC [SSTB NP+V+V2 #11 Same Structure] | 49.6 nM | 74.5 nM | 13.2 nM | 78.9 nM | 82.6 nM
GCUAUGGCUAGAAGGAGCGUGAAUUUCAGAAAACAUGAGGAUCACCCAUGUAAGGAUAUGACACAGGUAGGUCGCUAGCCAUAGC [SSAB NP+V+V2 #19] | 9.88 nM | 10.5 nM | 10.8 nM | 10.8 nM | 12.5 nM

Sequence | apparent KD of MS2 coat protein (input ligand: arginine 13.2 mM) | apparent KD of MS2 coat protein [1] | apparent KD of MS2 coat protein [2] | apparent KD of MS2 coat protein (input ligand: none) | apparent KD of MS2 coat protein [3]
GCUGCCAUACGAAGGAGCGCUGUUGCAAUGAGGCGAACAUGAGGAUCACCCAUGUGGCAAAAGCAGGUAGGUCGCGUAUGGCAGC [EAB #17] | 20.4 nM | 29.3 nM | 20.2 nM | 20.5 nM | 23.4 nM
GCUGCUUAGGGAAGGAGCGCUGCGGAAUUGUGGAGGACAUGAGGAUCACCCAUGUUCCUGCGGCAGGUAGGUCGCUUUGGGCAGC [#17 Exclusion - Arginine B] | 32.8 nM | 48.1 nM | 45.3 nM | 40.3 nM | 60.5 nM
GCUGCUUUGGGAAGGAGCGCUGCGGUAUUGUGGCGGACAUGAGGAUCACCCAUGUGCCUGCAGCAGGUAGGUCGCUUAGGGCAGC [EAP NP+V+V2 #17] | 54 nM | 92 nM | 58.4 nM | 68.8 nM | 79.8 nM
GCUGUACCAUGAAGGAGCGCUUUAAUUAUAGAAGAUACAUGAGGAUCACCCAUGUUCCUCGAGCAGGUAGGUCGCAUGGUACAGC [SSAB #18] | 25.4 nM | 33 nM | 22.9 nM | 20.3 nM | 27 nM
GGACAUGCAGGAAGGAGCGACACGCAGAAACUGCAAAAUCCUCCACACGAGGAUCACCCGUGUCAGGUAGGUCGCCUGCAUGUCG [ArgXB 15 #Zipper #MS2Left #StaticStem #Blueprint] | 88.8 nM | 140 nM | 110 nM | 73.3 nM | 127 nM
GGACUAACCAGAAGGAGCGACACAAGCAGAAACUGCAAUCCUCCGCACGAGGAUCACCCGUGUCAGGUAGGUCGCUGGUUAGUCG [ArgBX 28] | 57.5 nM | 96.8 nM | 67.4 nM | 63.7 nM | 96.8 nM
GGACUAACCUGAAGGAGCGGCGCGCAGAAACUGCAAAUUCCUCCACACGAGGAUCACCCGUGUCAGGUAGGUCGCAGGUUAGUCG [ArgBX 28] | 11.5 nM | 16.6 nM | 12.7 nM | 12.1 nM | 12.6 nM
GGAGCUACGUCGGCCGCCACUAGCGGAUAUUACGUGUACAUGAGGAUCACCCAUGUAAUACGGUUUAGGACCGGGACGUAGCUCC [Lizard] | 15.6 nM | 22.4 nM |  |  | 20.6 nM
GGAGCUACGUCGGCCGCCACUAGCGGGUAUUGCGUGUACAUGAGGAUCACCCAUGUAAUACGGCCUAGGACCGGGACGUAGCUCC [Raven] | 12.1 nM | 19.1 nM | 13.8 nM |  | 14.5 nM
GGAUAGGACAGAAGGAGCGUGAGAUGCAAAGCUUCAUUCCUCACAUGAGGAUCACCCAUGUCACAGGUAGGUCGCUGUCCUAUCG [#19 Exclusion - Arginine B] | 78.6 nM | 106 nM | 78.9 nM | 102 nM | 111 nM
GGCACGUACGGAAGGAGCGACUGUUCAACGUGGGUACAUGAGGAUCACCCAUGUCUCCGCAGUCAGGUAGGUCGCCGUACGUGCC [EAB NP+V+V2 #20] | 15 nM | 19.8 nM | 10.7 nM | 12.2 nM | 13.2 nM
GGCCAUGGAAACAUGGCGGCGGCGUAUGCGCGAGGACCGGUACGGCCGCCACUCGGGCGACAUGAGGAUCACCCAUGUUCCUCAU [ETA NP+V+V2 #25] | 127 nM | 243 nM |  |  | 275 nM
GGCGCGAGCCAACAUGAGGAUCACCCAUGUCGAGGACCGGUACGGCCGCCACUCGAACGAGUGAAGCGCGCGCGCGCGCGCGCGC [Uaa] | 32.4 nM | 106 nM | 167 nM | 61.5 nM | 68.8 nM
GGCGCUGCGUCGGCCGCCACUAGUGGGUAAUGGGUGUACAUGAGGAUCACCCAUGUAUUUUGGCCUAGGACCGGGACGUGGCGCC [Oxen] | 81.9 nM | 455 nM |  |  | 570 nM
GGGACACCGGGAAGGAGCGCAUCCAAACCACACAUGAGGAUCACCCAUGUAUAAAUAUGCAUGCAGGUAGGUCGCCCGAUGUCUC [Anrearradi] | 60.9 nM | 121 nM | 110 nM | 90.7 nM | 120 nM
GGGACAUCGGGAAGGAGCGCAUCCAAACCACACAUGAGGAUCACCCAUGUAUAAAUAUGCAUGCAGGUAGGUCGCCCGGUGUCUC [Ersoatus] | 79.5 nM | 131 nM | 121 nM | 104 nM | 117 nM
GGGAGAUGAAAAGAUUGAGCUAAAACAGAAGGAGCGUGAAUUAACACAGGUAGGUCGCUGACAACAUGAGGAUCACCCAUGUAUU [Same State Arginine A GF4] | 24.9 nM | 30.4 nM | 21.4 nM | 19.6 nM | 26.5 nM
GGGCCUAUCUGAAGGAGCGACAUGAGGAUCACCCAUGUCUCCCGUUAUGGGAGUUCUUUAGGUCAGGUAGGUCGCAGGUAGGGCC [#1 Exclusion - Arginine B Attempt #5 (Inspired by Omei)] | 12.2 nM | 19 nM | 15 nM | 14.7 nM | 15.2 nM
